The assay concerns the target staphylococcal TMcin-G1905 (mature transmembrane helix-containing bacteriocin peptide, processed product of TmcA) (Staphylococcus aureus (isolate G1905)).

Bridges are numbered along the chain shown (N, C = ends). Where no end group is shown, it is not given here.

B1: staphylococcal TMcin-G1905 (mature transmembrane helix-containing bacteriocin peptide, processed product of TmcA) (peptide)
chain: AWFVVLLAAILVFATAIFAGLTIWCVVNQHGKFTGNWNWHIKGVSLDVECKR
modifications: disulfide 25-50
B1 returned a discrete stepwise conductance events in voltage-clamped planar lipid bilayers (DPhPC, 150 mM KCl) after adding purified TMcin-G1905; median conductance of 10.8 nS.
